These results are taken from US20160376333A1 (University of Washington, published 2016).

The chains are these.
T1: Epstein-Barr virus BHRF1 a.a. 1-161 with C-terminal avi-6his tag (Epstein-Barr virus)
T1 construct: also called EBV BHRF1; BHRF1-biotin
T1 chain: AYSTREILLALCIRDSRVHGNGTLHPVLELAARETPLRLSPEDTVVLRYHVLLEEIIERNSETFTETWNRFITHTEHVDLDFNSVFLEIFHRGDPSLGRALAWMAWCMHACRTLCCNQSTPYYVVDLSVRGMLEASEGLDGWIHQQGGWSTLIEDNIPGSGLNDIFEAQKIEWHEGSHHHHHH

B1: Index 09 (designed binder)
chain: GKEAKKRIQEALEEAKRKAEKLLREHEKKKKEHLLGDKRDREKTEETDKWIAEALMLIGDIFNLYMKFEWEKEREKKLGLLREEEEKEVEDEAKDAYLKALKLAYLVSKKGHEVAELG
B2: Index 00 (Design BbpD04) (designed binder)
chain: GADWKKVLDKAKDIAENRVREIKQKLEEFYKKAMKLDLTQEMRRKLMLEWIAAMLMAIGDIFNAIEQAKQEADKLKKAGQVNSQLLDELKRRLEELKEEASRKCHDYGREFQLKLEYG
B3: Index 69 (designed binder)
chain: GEQAEKALRRAKRRAKWGLDDAKDILDDIEAEIRWYYPRDEERFKFVDRWIAAMLMVIGDLFNAKREALERALRLMRKGLISQDQFKKFMEKLEKIILWGKFQARKLGREKESEITQG
B4: Index 71 (designed binder)
chain: GERAERARDWAKDQMDDELEKAREKLWKLAFIAFKFYLKLELLFKLMFRWIAIMLEAIGDFFNVWAIAKRWLERYKLQNNIRKEEIEKAKERAKKLYEEAADKAAKLGRFYMKLLTSG
B5: Index 07 (designed binder)
chain: GEEFKKKLKKWEEWLLKATNEAENQARNMWQKAEQTDLEDQQRIRAVDFWIAIALMAIGDKFNADQEGDEEFEKYKKKGRASEDKIKEAKDERDRAKKRWEQFVKEAGERAFRGEQLG
B6: Index 17 (designed binder)
chain: GRSAEIMREILEKQAEDDAKKIRDIAQKWKERRKRYDPRDEEREEEVEKWIAFALMAIGDIFNLARWALLQARWERRWNLSHEDEGKNHEENVKDAEDRAHWKAREAAREGAKMSWEG
B7: Index 68 (designed binder)
chain: GVSIEWAFDFLENKAEEDAREARRLAQKLAEEFFKHSAREEDRAKLTKKWIAVALMIIGDIFNVEQFTKQQGEEFVKRGLRSEDDFKEYLRKMEEKKEEAERIAKRAKDDMLKARDLG
B8: Index 70 (designed binder)
chain: GLLWLAIILKAEELARKKDDEAEERIRRLEDEKRKGDPGTLGEAERTDRWIAIMLMAIGDAFNVMLEAKEEAEKLEKLGLVHKELLEKVKEEAERLFERSSDNFEEAAKRADDMEKEG
B9: Index 10 (designed binder)
chain: GDSDDDDLKDALLRMLWAAAQAIYHSLENMERKEKFDMHFEEERRDTLQWIADALRAIGDAFNEMMRRRRELEKKRENNIISEQRARLYEEFLKRFAEWASRELAKAGKKEANKLNEG
B10: Index 74 (designed binder)
chain: GTDHQAFDEWARRELERIVEEARERAERLREWIEQKDASREELTKFFAIWIAISLMAIGDLFNVKEQAKRLAELLEFLGLQRKEEIEKSKKNAEKLADEAMKKASKLDAKVEKELMQG
B11: Index 12 (designed binder)
chain: GEDDDKVLKWALEALRKVLDEAKEKLEKLKKYTDGDGFGEDYRREFFRKWIAIALEAIGDIFNIMMEALQKADKHKKLNTHDSQKADEAKEKIKKFADEAEERAKELAKKGEAWLLKG
B12: Index 11 (designed binder)
chain: GNILDEAKDEMREEMEKLWKKFKDEVEEERKEAEREEKHFQERAELTKRWIARALMAIGDMFNRFREAKEKLEKRRELGLISEEDARKALLLLEEFMRRMAEFAKKLGDDLMRDAEKG
B13: Index 66 (designed binder)
chain: GRSKDDATKEAWERLERLLKEFKEKAEKLRDKAQAHYVYKQFALKVTILWIAWALKLIGDAFNFIEEAEKKMRENRERNLISEDDAREEKRKLEEFARRASKKANKIGDDLDRQLELG
B14: Index 72 (designed binder)
chain: GGSYDDIADLAKKLHKKIAEEAKKKIDELLKEAFEDKPYEEEFAKKMFKWIAIALMAIGDLFNAAELAKRLAEDLKKDNNRDENKAEEAKQRAEQFEKEGAEELAKKGEEAAKKLAGG
B15: Index 06 (designed binder)
chain: GRSANDILKQFLEMLQEALRKFDEKKNKIEDEWKQFDLSTQRREEATHKWIAAALMAIGDMFNALRWALEEALKAKLKNLQSSDDLKEAIERMMKLMLEKAQEIQEKGRELADKIEQG
B16: Index 73 (designed binder)
chain: GKDLDEIIDEARKEMDDDADDGKKKAEKLLKLHAGTNHSQDDFNEAHRRWIAVALEEIGDLFNAALRAWRKIEEEIRKNQRRKEEAEKAKEKVSKEYERASRKAAELGKEFEERVEQG
B17: Index 13 (designed binder)
chain: GSKWEEDREKAKREAEKKLDEAKDKLDLYKDFALRFDASDELKTKWTLEWIALALEMIGDVFNYALEAKEFAEKKARNNLLLDDLKDLYKLYLALLAKEESKKAIEEGDKLREAIEKG
B18: Index 14 (designed binder)
chain: GLSADDLFDYAEDRMREGWKDFEELAGEAEKKAKEHTLSDQERREATEKWIAAALELIGDAFNAIRWAEELGKLYVKLNLDDKQKVEELKKKLEERAKEEAQKARKRGDKLEDLADSG
B19: Index 05 (designed binder)
chain: GKDADKKKDEAKKKAEWKEREVFERLEKMEWKKRKDSVSKDDARKFTLKWIADDLELIGDLFNLKEEAREVAEDAARNNQITEEQREEDEKDLEKLAKEHSWRAAYRGKLKAKEFWEG
B20: Index 08 (designed binder)
chain: GWDARRALKYVYERMREDLEYARNQIDNMEDRADQYDARTEERKEFTKRWIALALMLIGDGFNAFERAKEWIDDGKNNNQRSSDEADYAKDEALKFIFYAAFEARRKGDELDKKAEGG

The first experiment addresses T1, Epstein-Barr virus BHRF1 a.a. 1-161 …. The experiment in a line: yeast display library, FACS sort at 100 nM BHRF1, deep sequencing.
Regarding B1, the Log2 enrichment ratio is -2.55 log2.

On to B2, for which the Log2 enrichment ratio was 3.92 log2.

For B3, the Log2 enrichment ratio was -3.25 log2.

In the case of B4, the Log2 enrichment ratio was -2.58 log2.

On to B5, for which the Log2 enrichment ratio is -2.79 log2.

As for B6, the Log2 enrichment ratio was -3.41 log2.

With B7, the Log2 enrichment ratio is -2.57 log2.

With B8, the Log2 enrichment ratio is -3.02 log2.

B9: the Log2 enrichment ratio was -0.72 log2.

In the case of B10, the Log2 enrichment ratio was -3.38 log2.

B11: the Log2 enrichment ratio was -2.56 log2.

B12: the Log2 enrichment ratio was -2.62 log2.

For the molecule B13, the Log2 enrichment ratio is -2.03 log2.

With B14, the Log2 enrichment ratio was -3.34 log2.

With B15, the Log2 enrichment ratio was -2.35 log2.

With B16, the Log2 enrichment ratio was -3.14 log2.

With B17, the Log2 enrichment ratio was -3.07 log2.

For the molecule B18, the Log2 enrichment ratio was -2.91 log2.

Consider B19, for which the Log2 enrichment ratio was -2.5 log2.

On to B20, for which the Log2 enrichment ratio is -3.06 log2.

A further experiment shares this target. Briefly: yeast display library, FACS sort at 400 nM BHRF1, deep sequencing.
With B1, the Log2 enrichment ratio was -2.05 log2.

Turning to B2, the Log2 enrichment ratio is 3.19 log2.

As for B3, the Log2 enrichment ratio is -3.99 log2.

Turning to B4, the Log2 enrichment ratio was -3.07 log2.

As for B5, the Log2 enrichment ratio was -1.16 log2.

As to B6, the Log2 enrichment ratio is -2.54 log2.

With B7, the Log2 enrichment ratio is -3.63 log2.

B8: the Log2 enrichment ratio is -3.13 log2.

Regarding B9, the Log2 enrichment ratio was 0.62 log2.

B10: the Log2 enrichment ratio was -2.62 log2.

As for B11, the Log2 enrichment ratio was -1.37 log2.

For B12, the Log2 enrichment ratio is -1.55 log2.

On to B13, for which the Log2 enrichment ratio is -2.49 log2.

In the case of B14, the Log2 enrichment ratio is -3.47 log2.

With B15, the Log2 enrichment ratio is -1.45 log2.

On to B16, for which the Log2 enrichment ratio is -2.27 log2.

In the case of B17, the Log2 enrichment ratio is -1.6 log2.

For the molecule B18, the Log2 enrichment ratio is -0.65 log2.

Take B19: the Log2 enrichment ratio was -0.83 log2.

As for B20, the Log2 enrichment ratio is -0.8 log2.
